{
  "source": "patent US20040009913A1",
  "about": "“Use of serum response factor (srf) modulator for treating srf related diseases” (priority 2000, published 2004)",
  "molecules": {"B1": {"name": "zyxin: focal adhesion protein transiently overexpressed in Srf(−/−) ES cells (protein, UniProt Q15942 2-572, looked up)", "Zyxin": "AAPRPSPAISVSVSAPAFYAPQKKFGPVVAPKPKVNPFRPGDSEPPPAPGAQRAQMGRVGEIPPPPPEDFPLPPPPLAGDGDDAEGALGGAFPPPPPPIEESFPPAPLEEEIFPSPPPPPEEEGGPEAPIPPPPQPREKVSSIDLEIDSLSSLLDDMTKNDPFKARVSSGYVPPPVATPFSSKSSTKPAAGGTAPLPPWKSPSSSQPLPQVPAPAQSQTQFHVQPQPQPKPQVQLHVQSQTQPVSLANTQPRGPPASSPAPAPKFSPVTPKFTPVASKFSPGAPGGSGSQPNQKLGHPEALSAGTGSPQPPSFTYAQQREKPRVQEKQHPVPPPAQNQNQVRSPGAPGPLTLKEVEELEQLTQQLMQDMEHPQRQNVAVNELCGRCHQPLARAQPAVRALGQLFHIACFTCHQCAQQLQGQQFYSLEGAPYCEGCYTDTLEKCNTCGEPITDRMLRATGKAYHPHCFTCVVCARPLEGTSFIVDQANRPHCVPDYHKQYAPRCSVCSEPIMPEPGRDETVRVVALDKNFHMKCYKCEDCGKPLSIEADDNGCFPLDGHVLCRKCHTARAQT"}, "B2": {"name": "wildtype SRF protein: wildtype serum response factor reintroduced by expression vector (protein, UniProt P11831 1-508, looked up)", "Serum response factor": "MLPTQAGAAAALGRGSALGGSLNRTPTGRPGGGGGTRGANGGRVPGNGAGLGPGRLEREAAAAAATTPAPTAGALYSGSEGDSESGEEEELGAERRGLKRSLSEMEIGMVVGGPEASAAATGGYGPVSGAVSGAKPGKKTRGRVKIKMEFIDNKLRRYTTFSKRKTGIMKKAYELSTLTGTQVLLLVASETGHVYTFATRKLQPMITSETGKALIQTCLNSPDSPPRSDPTTDQRMSATGFEETDLTYQVSESDSSGETKDTLKPAFTVTNLPGTTSTIQTAPSTSTTMQVSSGPSFPITNYLAPVSASVSPSAVSSANGTVLKSTGSGPVSSGGLMQLPTSFTLMPGGAVAQQVPVQAIQVHQAPQQASPSRDSSTDLTQTSSSGTVTLPATIMTSSVPTTVGGHMMYPSPHAVMYAPTSGLGDGSLTVLNAFSQAPSTMQVSHSQVQEPGGVPQVFLTASSGTVQIPVSAVQLHQMAVIGQQAGSSSNLTELQVVNLDTAHSTKSE"}},
  "key": {"monolayer ES cells": {"test_system": "monolayer ES cells", "assay": "In vitro differentiation of monolayer ES cells, RT-PCR of differentiation marker genes", "assay_type": "cell-based, mouse", "conditions": "SRF-containing (Srf(−/+)) ES cells in monolayer, LIF withdrawal plus agent", "description": "In vitro differentiation conditions. For differentiation experiments, cells were seeded in monolayers on gelatin-coated dishes and kept overnight in complete medium. The first day after seeding was defined to be day 0 of differentiation. The medium was then exchanged by complete medium lacking LIF or complete medium without LIF, but containing either 0.8% dimethylsulfoxide (DMSO) or 5×10^−7 M all-trans RA, respectively. Medium was exchanged daily and cells were harvested at the indicated time points for RT-PCR analysis. The vitality was determined by trypan blue staining. The vitality of detached cells was less than 5%.\nTotal RNA preparation (RNeasy kit, QUIAGEN) and first strand cDNA synthesis (Superscript II, Gibco) were done according to the manufacturers protocols. 1 μg of total RNA treated with DNAse I was used for reverse transcription. […] For quantitative analysis, SYBR Green PCR technology was used (Perkin Elmer). Real time detection of the PCR product was monitored by measuring the increase in fluorescence caused by the binding of SYBR Green to double-stranded DNA with ABI PRISM 7700 Sequence Detector. In order to do relative quantification, a threshold cycle (Ct), the cycle at which a statistically significant increase in fluorescence occurs, was derived from the resulting PCR profiles of each sample. […] The relative quantitation value is expressed as […]. […]"}, "Srf(−/−) ES cells": {"test_system": "Srf(−/−) ES cells", "assay": "F-actin / stress fiber immunofluorescence and cell morphology after transient transfection of ES cells", "assay_type": "cell-based, mouse", "description": "Alternatively, the cells were grown on gelatine-coated coverslips in complete growth medium for 48 hours, or as EBs in droplets for up to 8 days. The samples were then fixed in 4% formaldehyde and permeabilized in 0.2% Triton-X 100. Non-specific binding was blocked by incubating the cells for one hour in 1% BSA in PBS at 37° C. before staining with primary antibodies for 1 hour at 37° C. Incubation with fluorescence conjugated secondary antibodies (Molecular Probes, 1:200 in 0.2% BSA) was performed for 30 min at 37° C. To visualize filamentous actin, 1 unit Oregon-green phalloidin was included into the mixture. Coverstips were washed four times with PBS, once in water, air-dried and mounted in Moviol. Image acquisition was done with LSM 510 (Zeiss).\n(C) SRF-VP16 expression leads to increased stress fiber formation. […] ES cells were transiently transfected with SRF-VP16 (upper panel) and the SRF-M-VP16 control construct (lower panel) and processed for immunofluorescence analysis three days later. […]\nSRF-VP16 fusion proteins were previously used to drive SRF-dependent transcription independent of upstream signalling cascades (Hines et al., 1999; Johansen and Prywes, 1994;Treisman et al., 1992). […] Undifferentiated ES cells were transiently transfected with SRF-VP16 and SRF M-VP16 expression vectors, and RNA expression levels were measured by quantitative RT-PCR (FIG. 17B). […]"}},
  "data": [
    {"molecule": "C[S+](C)[O-]", "note": "[DMSO, dimethylsulfoxide]", "values": [
      {"measurement": "timing of mesodermal marker gene induction versus LIF withdrawal alone", "setting": "monolayer ES cells", "value": "earlier induction"}
    ]},
    {"molecule": "B1", "values": [
      {"measurement": "rescue of defective actin cytoskeleton", "setting": "Srf(−/−) ES cells; transient overexpression in Srf(−/−) ES cells", "value": "did not rescue the defective actin cytoskeleton"}
    ]},
    {"molecule": "B2", "values": [
      {"measurement": "effects on gene expression and cytoskeletal rearrangements", "setting": "Srf(−/−) ES cells; reintroduction by transient transfection", "value": "only minor effects"}
    ]}
  ]
}
